In patent US7754855:

Molecular target: rabbit GH receptor (rabbit) (UniProt P19941)
Test: cell-based or functional assay

Chain of UniProt P19941 (P19941 19-638): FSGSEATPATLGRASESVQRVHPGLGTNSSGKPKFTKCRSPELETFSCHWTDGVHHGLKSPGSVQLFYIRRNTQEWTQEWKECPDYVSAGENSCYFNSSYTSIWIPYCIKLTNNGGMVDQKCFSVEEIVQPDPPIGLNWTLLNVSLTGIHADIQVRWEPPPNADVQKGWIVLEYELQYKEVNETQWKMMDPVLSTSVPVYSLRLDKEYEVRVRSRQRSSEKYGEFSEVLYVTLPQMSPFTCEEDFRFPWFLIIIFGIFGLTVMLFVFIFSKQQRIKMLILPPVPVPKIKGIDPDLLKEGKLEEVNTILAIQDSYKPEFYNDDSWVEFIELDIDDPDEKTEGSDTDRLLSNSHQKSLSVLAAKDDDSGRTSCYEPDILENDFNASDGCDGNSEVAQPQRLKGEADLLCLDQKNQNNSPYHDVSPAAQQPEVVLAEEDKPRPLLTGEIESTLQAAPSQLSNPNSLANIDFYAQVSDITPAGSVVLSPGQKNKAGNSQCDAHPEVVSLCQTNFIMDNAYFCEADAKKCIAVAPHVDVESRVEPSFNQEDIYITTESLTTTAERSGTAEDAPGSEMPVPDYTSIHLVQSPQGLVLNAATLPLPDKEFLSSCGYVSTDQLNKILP

Substance: human pituitary GH standard (from UniProt P01241 27-217) (ligand)
- Mean EC50 (nM), proliferation of GH-R4 cells: 0.036 nM
- Mean EC50 (ng/ml), proliferation of GH-R4 cells: 0.8 ng/mL
